In patent US20140155331A1 (COUNCIL OF SCIENTIFIC AND INDUSTRIAL RESEARCH, published 2014):
Where no end group is shown, it is not given here. [ ]: non-standard residue; d: D form. fluorescein = N-terminal 5(6)-carboxyfluorescein label; Aib = CC(C)(N)C(=O)O; Ahx = NCCCCCC(=O)O

T1: S100B
T1 chain: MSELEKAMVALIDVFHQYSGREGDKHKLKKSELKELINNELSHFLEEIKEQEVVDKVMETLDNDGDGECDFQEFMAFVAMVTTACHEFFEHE


How the values were obtained:
S100B [1] = target: T1, S100B; assay: fluorescence anisotropy, N-terminal fluorescein labeled peptide
S100B [2] = target: T1, S100B; assay: fluorescence anisotropy; 5 nM fluorescein labeled peptide titrated with S100B in 50 mM Tris-HCl pH 7.5, 50 mM NaCl, 10 mM CaCl2, 25 C

| Binder | Kd (S100B [1]) [µM] | Kd (S100B [2]) [µM] |
| --- | --- | --- |
| fluorescein-TRTKIDW[Aib]KIL[Aib]GGGCG-NH2 (The peptide is derived from TRTK-12 (CapZ residues 265-276) with Aib at N8 and S12; also called pBM-TRK) [pBM-TRTK (Aib substituted TRTK monomer peptide)] | ~0.3 | – |
| pBBD-TRTK (branched dimeric Aib substituted TRTK) (also: branched dimer: two identical arms on one branching Lys (chain 2), This is a branched peptide with two identical arms on one lysine; also called bivalent helically branched peptide) peptide: TRTKIDW[Aib]KIL[Aib]KAH[Ahx] Lys-NH2 | – | 0.0077 |
